Results published in the nanobody polyreactivity screen of Harvey et al. (2022).

Assay: yeast display, Sf9 membrane polyspecificity reagent, FACS + sequencing; frameworks hold sequencing errors
Summary of the method: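 In a synthetic yeast display library (Saccharomyces cerevisiae BJ5465), nanobody expression was induced with galactose for 36–48 hours. FACS gates were set low and high (top ~1%) using anti-HA fluorescence for expression and streptavidin fluorescence for binding of the Sf9 membrane reagent. Each polyreactivity label is drawn from the gate of origin.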

| Sequence | polyreactivity (PSR sort gate) |
| --- | --- |
| QVQLVESGGGLVQAGGSLRLSCAASGRIFYPNALGWYRQAPGTERELVAAITWRGGRTYYADSVKGRFTISRDNAKNTVYLQMNSLKPEDTAVYYCNAVAPGKYNHWGQGTQVTVSS | high polyreactivity |
| QVQLVESGGGLVQAGGSLRLSCAASGRIFYPNAMGWYRPAPGKVRELVAGISRSGGSTYYADSVKGRFTLSRDNAKNTVYLQKNSLKPEDTAVYYCAARYYASDRHFRGDYWGQGTQVTVSS | low polyreactivity |
| QVQLVESGGGLVQAGGSLRLSCAASGRIFYPYAMAWYRQAPGKERELVAAISGSGARKYYADSVKGRFTISRDNAKNTVYLQMNSLKPEDTAVYYCARYQSNSDVYWGQGTQVTVSS | high polyreactivity |
| QVQLVESGGGLVQAGGSLRLSCAASGRIFYPYAMGWSRQAPGKERELVASISGRGTTTYYADSVKGRFTISRDNAKNTVYLQMNSLKPEDTGVYYCNAYPPTQYGYYYWGQGTQVTVSS | high polyreactivity |
| QVQLVESGGGLVQAGGSLRLSCAASGRIFYPYAMGWYRPAPGKERELVAVINGSGGSTYYADSVKGRFTISRDNAKNTVYLPMNSLKPEDTAVYYCAADYPKTYTSKFNYWGQGTQVTVSS | high polyreactivity |
| QVQLVESGGGLVQAGGSLRLSCAASGRIFYPYAMGWYRQAPGKERELVAAIDFSDGNSYYADSVKGRFTISRDNAKNTVYLQMYSLKPEDTAVYYCAVDYTGAWIGVWYDYWGLGTQVTVSS | high polyreactivity |
| QVQLVESGGGLVQAGGSLRLSCAASGRIFYPYAMGWYRQAPGKERELVAAIDWTAGGTYYADSVKGRFTISRDNAKNTVYLQMNSLKPEDTAVYYCAAEYYIEANGDYWGQGTQVTVSS | low polyreactivity |
| QVQLVESGGGLVQAGGSLRLSCAASGRIFYPYAMGWYRQAPGKERELVADISSAGSTYYADSVKGRFTISRDNAKNTVYLQMNSLKPEDTAVYYCAADRTSGAYYFRFLYDRDYWGQGTQVTVSS | low polyreactivity |
| QVQLVESGGGLVQAGGSLRLSCAASGRIFYPYAMGWYRQAPGKERELVAVINGSGGSTYYADSVKGRFTISRDNAKNTVYLQMNSLKPEDTAVYYCAAYFGHYWRYYYWGQGSQVTVSS | high polyreactivity |
| QVQLVESGGGLVQAGGSLRLSCAASGRIFYQNAMGWYRQAPGKERELVAAISSSGDSTYADSVKGRFTISRDNAKNTVYLQMNSLKPEDTAVYYCAAGVGWEFDYWRQGTQVTVSS | low polyreactivity |
| QVQLVESGGGLVQAGGSLRLSCAASGRIFYQYAMGWYRQAPGKERELVAAISWSGGNTYYADSVKGRFTISRDNAKKTVYFQMNSLKPEDPAVYYCNRYWYRDRLWLYDYWGQGTQVTVSS | high polyreactivity |
| QVQLVESGGGLVQAGGSLRLSCAASGRIFYQYAMGWYRQAPGKERELVASISRSGTRTYYADSVKGRFTISRDNAKNTVYLQMNSLKPEDTAVYYCAAGYNLYYGVIYGFDYWGQGTQVTVSS | high polyreactivity |
| QVQLVESGGGLVQAGGSLRLSCAASGRIFYQYAMGWYRQAPGKERELVASITTSGGNTYYADSVKGRFTISRDNAKITFYLQMNSLKPEDTAVYYCAARFNWRQWLYEYWGQGTQVTGSS | low polyreactivity |
| QVQLVESGGGLVQAGGSLRLSCAASGRIFYQYAMGWYRQAPGKERELVASITTSGGNTYYADSVKGRFTISRDNAKNTVYLQMNSLKPEDTAVYYCAARFNWRQWLYDYWGQGTQVTVSS | low polyreactivity |
| QVQLVESGGGLVQAGGSLRLSCAASGRIFYRNAMGWYRQAPGKERELVAAISGSGGSTYYADSVKGRFTISRDNAKNTVYLQMNSLKPEDTAVYYCNVDRSPTHIVGYGYWGQGTQVTVSS | low polyreactivity |
| QVQLVESGGGLVQAGGSLRLSCAASGRIFYRNAMGWYRQAPGKERELVAGITRGGSTNYADSVKGRFTISRDNAKNTVYLQMNSLKPEDTAVYYCAKAIPAKFYSEAGYDYWGQGTQVTVSS | low polyreactivity |
| QVQLVESGGGLVQAGGSLRLSCAASGRIFYRNTMGWYRQAPGKERELVAAITRSGGITNYADSVKGRFTISRDNAKNTVYLQMNSLKPEDTAVYYCNAAYLYSASRGVYRYRGDYWGQGTQVTVSS | high polyreactivity |
| QVQLVESGGGLVQAGGSLRLSCAASGRIFYRNTMGWYRQAPGKERELVAAITWRAGRTYYADSVKGRFTISRDNAKNTVYLQMNSLKPEDTAVYYCNADRTAPERYSRVPSSDSWGQGTQVTVSS | high polyreactivity |
| QVQLVESGGGLVQAGGSLRLSCAASGRIFYRYAMGWYIQAPWKERELVASISLSGDSTYYADSVKGRFTISRDNAKNTVYLQMNSLKREDTAFYYCDVEGLGAAVYAGDRYDYWGQGTQVTVSS | low polyreactivity |
| QVQLVESGGGLVQAGGSLRLSCAASGRIFYRYAMGWYRQAPGKERELVAAIRYSGGRTYYADSVKGRFTISRDNAKNTVYLQMNSLKPEDTAVYDCAADGHWYYAPFGGGDYENDYWGQGTQVTVSS | low polyreactivity |
| QVQLVESGGGLVQAGGSLRLSCAASGRIFYRYAMGWYRQAPGKERELVAAISSGSSTNYADSVKGRFTISRDNAKNTVYLQMNSLKPEDTAVYYCNAERYGKSWRYCYWGQGTQVTVSS | high polyreactivity |
| QVQLVESGGGLVQAGGSLRLSCAASGRIFYRYAMGWYRQAPGKERELVASISGSGGRTYYADSVKGRFTISRDNAKNTVDLQMNSLKPEDTAVYYCAARIRPSYDWGQGTQVTVSS | high polyreactivity |

| Sequence | polyreactivity (PSR sort gate) |
| --- | --- |
| QVQLVESGGGLVQAGGSLRLSCAASGRIFYRYAMGWYRQAPGKERELVATISSGGSTNYADSVKGRFTISRDNAKNTVYLQMNSLKPEDTAVYYCARQSLRYSYVSRDYWGQGTQVTVSS | low polyreactivity |
| QVQLVESGGGLVQAGGSLRLSCAASGRIFYRYAMGWYRQAPGKERELVATMSWSGGSTYYADSVKGRFTISRDNAKNTVYVQMNSLKPEDTAVYYCNAAYGYVSRVYYLIEHDYWGQGTQVTVSS | high polyreactivity |
| QVQLVESGGGLVQAGGSLRLSCAASGRIFYRYVMGWYRQAPGKERELVAAITSSGGSTYYADSVKGRFTISRDNAKNTVYLQMNSLKPEDTAVYYCAADRYTRYRYNYWGQGTQVTVSS | high polyreactivity |
| QVQLVESGGGLVQAGGSLRLSCAASGRIFYSNAMGWYRQAHGKERELVAAITGSGGRTHYADSVKGRFTISRDNAKNSVYLQMNSLKPEDTAVYYCAKDGYFPEFDYWGQGTQVTVSS | high polyreactivity |
| QVQLVESGGGLVQAGGSLRLSCAASGRIFYSNAMGWYRQAPGKERELVAAITWRGGSTYYADSVKGRFTISRDNAKNTVYLQMNSLKPEDTAVYYCATDGYDDTHYYYWGQGTQVTVSS | low polyreactivity |
| QVQLVESGGGLVQAGGSLRLSCAASGRIFYSNTMGWYRQAPGKERELVAGITSSGGSTYYADSVKGRFTISRDNAKYTVYLQMNSLKPEDTAVYYCATSSVAEAKYVTEGTFDYWGQGTQVTVSS | low polyreactivity |
| QVQLVESGGGLVQAGGSLRLSCAASGRIFYSYAMGGYRQAPGKERELVATITNGGSTNYADSVKGRFTISRDNAKNTVYLQMNSLKPEDPAVYYCATDQFTRSVDFDYWGQGTQVTVSS | high polyreactivity |
| QVQLVESGGGLVQAGGSLRLSCAASGRIFYSYAMGWYRQAPGNERELVAAIPRSGGRTYYADSVKGRFTISRDKAKNTGYLQMNCLKPEDTAVYDCATVWPSISPYPGYNYWGQGTQVTVSS | high polyreactivity |
| QVQLVESGGGLVQAGGSLRLSCAASGRIFYTNAMGWYRQAPGKERELVAAISWRGGSTYYADSVKGRFTISRDNAKNTVYFQMNSLKPEDTAVYYCNRYYLSYNYDYWGQGTQVTVSS | high polyreactivity |
| QVQLVESGGGLVQAGGSLRLSCAASGRIFYTYAMGWYRQAPGKERELVAAITSSGGRTYYADSVKGRFTISRDNAKNTVYLQMNSLKPEVTAVYYCATRYPWGWAMNYWGQGTQVTVSS | high polyreactivity |
| QVQLVESGGGLVQAGGSLRLSCAASGRIFYTYAMGWYRQAPGKERELVAGISRGGRTYYADSVKGRFTISRDNAKNSVYLQMNSLKPEDTAVYYCAARLQYGIQYRYDYWGQGTQVTVSS | high polyreactivity |
| QVQLVESGGGLVQAGGSLRLSCAASGRIFYTYAMGWYRQAPGKERELVSSITWSDGNTYYADSVKGRFTISRDNAKNTDYLQMNSLKPEDTAVYYCAAGDSFYVYLWPTYDYWGQGTQVTVSS | low polyreactivity |
| QVQLVESGGGLVQAGGSLRLSCAASGRIFYVYAMGWSRQAPGKERELVAAITSGGRTYYADSVKGRFTISRDNAKNTVYLQMNSLKPEDTAVYYCAARASSYNYWGQGTQVTVSS | high polyreactivity |
| QVQLVESGGGLVQAGGSLRLSCAASGRIFYVYAMGWYRQAPRKERELVAAITSGGSTYYADSVKGRFTISRDNAKNTVYLQMNSLKPEDTAVYYCAAYNRGRFRPYRFEYWGQGTQVTVSS | high polyreactivity |
| QVQLVESGGGLVQAGGSLRLSCAASGRIFYWYAMGWYRQAPGKEREFVAAITSSGGSTYYADSVKGRFTISRDNAKNTVDLQMNSLKPEDTAVYYCAARNPYYTSRGYWGQGTQVTVSS | high polyreactivity |
| QVQLVESGGGLVQAGGSLRLSCAASGRIFYWYAMGWYRQAPGKERELVAAISRSGSRTYYPDSVKGRFTISRDNAKNTVYLQMNSLKPEDTAVYYCAAVSGTGTAMDYWGQGTQVTVSS | high polyreactivity |
| QVQLVESGGGLVQAGGSLRLSCAASGRIFYYNALGWYRPAPGKERELVAAISWSGGSTYYADSVKGRFTISRDNATNTVYLQMNSLKPEDTAVYYCAVDVYGYTPRPTREPLIYEYWGQGTQVTVSS | low polyreactivity |
| QVQLVESGGGLVQAGGSLRLSCAASGRIFYYNTMGWYRQAPGKERELVAAISRSGGSTYYADSVKGRFTISRDNAKNTVYLQMNSLKPEDTAVYYCAAVTHRYGNSEFDYWGLGTQVTVSS | high polyreactivity |
| QVQLVESGGGLVQAGGSLRLSCAASGRIFYYNTMGWYRQAPGKERELVARITQRGGRTYYADSVKGRFTISRDYAKNTVYLQMNSLKPVDTAVYYFNAKVRGTNTAGVDYWGQGTQVTVSS | high polyreactivity |
| QVQLVESGGGLVQAGGSLRLSCAASGRIFYYTMVWYRQAPGKERELVAAISWSGGSTYYADSVKGRFTISRDNAKNTVYLQMNSLKPEDTAVYYCATRSRRLYHYDYWGQGTQVTVSS | high polyreactivity |
| QVQLVESGGGLVQAGGSLRLSCAASGRIFYYYAMGWSRQAPGKERELVADITWSGGSTYYADSVKVRFTISRDNAKNTVYLQMNSLKTEDTAVYYCNADRLRSTHDYWGQGTQVTVSS | high polyreactivity |
